According to patent US20090042869:

Target: recombinant SF2/ASF (Protein One) (UniProt Q07955)
Sequence (Q07955 whole entry): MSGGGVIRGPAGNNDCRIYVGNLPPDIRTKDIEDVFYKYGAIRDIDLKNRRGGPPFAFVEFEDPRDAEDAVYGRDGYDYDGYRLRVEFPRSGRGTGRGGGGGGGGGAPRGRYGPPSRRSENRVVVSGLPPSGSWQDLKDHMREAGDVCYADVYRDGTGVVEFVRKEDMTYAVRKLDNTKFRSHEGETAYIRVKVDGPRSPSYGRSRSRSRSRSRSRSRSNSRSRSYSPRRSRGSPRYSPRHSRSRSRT

Chain of Clk1 (Cdc2-like kinase), endogenous, from human platelets (chain, as listed by the source): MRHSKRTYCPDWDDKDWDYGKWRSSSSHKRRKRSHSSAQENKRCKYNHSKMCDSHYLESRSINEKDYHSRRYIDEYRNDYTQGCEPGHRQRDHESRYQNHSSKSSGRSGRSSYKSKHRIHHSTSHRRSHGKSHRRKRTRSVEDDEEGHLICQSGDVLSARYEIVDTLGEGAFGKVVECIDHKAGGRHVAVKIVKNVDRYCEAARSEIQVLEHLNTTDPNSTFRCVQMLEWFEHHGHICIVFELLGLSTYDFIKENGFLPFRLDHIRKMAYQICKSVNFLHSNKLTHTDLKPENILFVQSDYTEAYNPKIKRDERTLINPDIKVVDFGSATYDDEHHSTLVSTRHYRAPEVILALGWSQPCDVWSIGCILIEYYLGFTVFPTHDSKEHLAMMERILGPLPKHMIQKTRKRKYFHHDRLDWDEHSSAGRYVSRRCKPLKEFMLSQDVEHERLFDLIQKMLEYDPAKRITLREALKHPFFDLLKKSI

Substance: Clk1 (Cdc2-like kinase), endogenous, from human platelets
- SF2/ASF phosphorylation (immune complex kinase assay): Clk1 from activated platelets (grown on immobilized fibrinogen in the presence of thrombin for 30 minutes) markedly increased SF2/ASF phosphorylation
